Reference: the DeepSol protein solubility set

assay: soluble on expression in E. coli; label from the status in PepcDB or PDB records

Row | Sequence | soluble on expression in E. coli
1 | YIWIEHRTIHQHVDESQSSLHHTEKQIQTFITQHNNSFQELDLTNHHDVTATKRELLKLIHQQPATLYYELSGPNQFITNNYEHLNTKNMYLFSTHQLKFNNSTYMLKIYMANTPRLSEIKKDSRQFALIVDQYDNILYANDDRFTIGEKYRPQQFGFMNESVKLNHADHRLIIYKDIHENIED | not soluble
2 | GPGSMKNISNKRIIKDLKLLLEEVDANNEANSSGSPHSAAIFSVHTDTIYNWILKVKAPADSVYGGAGNTYQLSVLFSEDYPHEPPTVRFVTPVYSPLVTEEGGICDRMVNDVWTPDQRASDVIKLVLDRVFSQYKNHSDDDVNPEARHYLEKFPQEFAARVRRGG | soluble
3 | MSLKVIWTVTPVGYQRIAKRCPSCSVKRDFTPSGAFRVNSQKKVLDVWSIYKCTHCDYTWNISLFSRLPVSKINRDLYCRLMANDAATVQYFAYDNAILKRNNAELSGQPDFHIQERWLVSIASHKQVSVSVRISRSFQVSLLSILKKQLLLSAAEIKRRIETGQISGVTMKMLKSRKLKNAKYDLQLSVETLYDRRRIVLTCREGHHHHHH | soluble
4 | MGSDKIHHHHHHMKKNILHIHGFNSSPLSLKAEQTRKYMAKNFPNVGFYCPQLATTPANAMSQLEQLIETHDSNAKWYLIGSSLGGYFAHYLAKKYDCLAVLVNPAITPYELLHDYIGEQVNPYTEEVYQVTEDHMQQLKALEQTAPTIDCTEKNNYLVMVQTGDEVLNYQQAVEKYQYCRLIVQEGGDHSFINFDNCLPTISDFFQLDNTKRINSR | not soluble
5 | MPSSNSVVPPFDARNLEIKTKSIEQTLIPLVTQITTLVNYKESYMASGKPKSERAMRAALKIGSAVEAAIERFVCVGETIADENADIQPEMYDACTEARLAGASMANLSCACNDDPNSVVDKAVLVRASRQLLSSVTRVLLLADRVLVKQVLRAEDKIAFSLSRLESTRSFNDFVKVFAVFGGEMVELAHRSGDRQHDLKSEKRKAQMSIARTSLERLTMLLLTASKTYLRHPDCDSALQCRDGVFYQMKLSLELIAICVCDGILTTEKSRYIQDEPDMPIDIALQLTANAAIKQLTEMLEMIRMTVRVGAGVRERIVSALDALCQLTQDFTDSAYTPHHQREQILDFLEECRFEMTNLIQPDENEQLAASGLEVTVERLNRRLKDLSKQLQIVAMEQISEVLRANEDQVLLSSMKACAVSGDIDGVEKYMHKFREHADHMQEVCRLLHHISITDALHVHTGHVERNMRALAPLTILAGRTLCVHPSSRIARENLEVFCDTWGQAVNDLSRVAKESDVAANGRVAAEKQAYMSLPRPGVSKSSCRRSVPKHDAASSSSSNELLPNGGRHPKQVGIAPTRVVSQTGDEASSDEEQVDKQEIEAFQYRISLIIDDLQSDVEGGTHGR | not soluble
6 | MAHHHHHHMKWSAVCLLKRDFDAWAYSINWPQRKSHLPLLGSVSLTVEDIKFAYNAWCLLRLAMFFGTGHPKILSPLVNTTPSMDIMYGGNRLFYMHAEVGASLSRHKPKVALTPSHPDAQPVQSFPWRKVIREAGERRTGNEDCDGGVEIVLGMENGLSENVVSQCDYCLYIPQYGSIGSLSMISAMAIALHSAASAHVDQYMRDDDRVSPCSSRGHMPLSNGSLKVTKGNNLPHETNLLSLSNVEIAEILRARRMSYPMQLSVMVYNEFGDRNIGAIMRNANVFNCEQMIVLHRRKFNRRGALGTQHLIKTLFCSGVDDAQCQKSLEGYTIWLLYQYYPYLKIYEDPNGDEDATFIRPESTLLQEWLQGSYGMNPDHPMMNFHASHMIGTDVYLDDSDSVHAAVRHAANEGYRGIVLVVPEEGASFQRDIVKKARRIAYVVHPDRLARNVQRGLNGALSSAIALERLRTAIDGLQ | not soluble
7 | MTEASEINLSDIKGPIDVNTPITNHRTALIQNYSTKPKLTYQTVFGVNGPLVIVHNVKFPMFNEIVKITLPNGQIRMGQVLESSKNKAVVQVFEGTTGVDAKFTTCEFTGDIFRSPVSLDMLGRIFNGSGKPIDKGPPVLPEDYLDINGQPINPFNRIYPEEMIQTGISAIDVMNSIARGQKIPIFSAAGLPHNEIAAQIVRQGGLVQLPGRNNETVNFAIVFAAMGVNMETARFFKQDFEECGSMDNVCLFLNLANDPTIERIITPRIALTAAEFFAYHCGKHVLVVLTDMSSYAEALREISAAREEVPGRRGFPGYMYTDLATIYERAGRVKGREGSITQIPILTMPNNDITHPIPDLTGYITEGQIYIDKQLHKRLIYPPIDVLPSLSRLMKSAVGEGMTREDHSDLSNQLYACYAMGKDVQAMKAVVGVEALSPDDLLYLEFLAKFEKNFIAQGRYENRTIVESLNIGWELLRIFPREMLKRIPETLLEKYYKRKKQ | not soluble
8 | MFMSTDEVRRAFLSFFESKGHQIVESSSLVPANDPTLLFTNAGMNQFKDCFLGLEKRAYTRATTAQRCVRAGGKHNDLENVGFTARHHTFFEMLGNFSFGDYFKEDAIQYAWEFLTDVLQLPKERLLVTVYETDDEAFDIWNKKVGIPADRIIRIGDKKGGKKFDSDNFWQMGDTGPCGPCTEIFYDHGDHIWGGPPGSPEEDGDRFIEIWNNVFMQFNRHADGTMEPLPKPSVDTGMGIERISAIMQGVHSNYEIDVFQTLIKAAADAIGYQDLTNQSLRVVADHIRSCAFLIVDGVMPSNEGRGYVLRRIIRRAVRHGNKLGAQGAFFHKLVGPLAEVMGTAGVELKKQQALVEKVLRIEEENFGRTLDRGMSILNDALDQLSGQVLDGETVFKLYDTYGFPADLTNDVARERGFSIDEAGFEQAMEEQRQRAREAGQFGTDYNSLIKSATNTEFCGYTASRGQSVVREMFVEGAEVSTLSAGDKAIIVLDNTPFYAESGGQCGDTGVLKTDAGIFHVEDTQKLGNAIAHHGVIAQGVLATGDQVDAIVDEKRRAAISLNHSATHLLHAALRKVLGEHVAQKGSLVRAETLRFDFSHLEAMTAAEIKEVERLVNQEVRRNHSIETNIMNIDEAKAKGAMALFGEKYDDQVRVLSMGDFSTELCGGIHASNTGDIGLFKIISEGGIAAGIRRIEAVTGEGALDYLDAQQAQHDAKVSEMAAKAKLLEKEIQQLKDKLAAKESAGLINQVKQIAGVNVLVAQLNGADNKALRGMVDDLKNQLSSGIIMLGNVAEGKVGLIAGVTNDLTNKVKAGELVNMVALQVGGKGGGRPDMAQAGGTDAHALPSALESVDAWIAERL | not soluble
9 | MSLASIDFRNKINWHRRYRSPQGVKTEHEILRIFESDRGRIINSPAIRRLQQKTQVFPLERNAAVRTRLTHSMEVQQVGRYIAKEILSRLKEQDRLEEYGLDALTGPFESIVEMACLMHDIGNPPFGHFGEAAINDWFRQRLHPEDAESQPLTHDRCVVSSLRLQEGEENLNDIRRKVRQDICHFEGNAQGIRLVHTLMRMNLTWAQVGGILKYTRPAWWRGPVPDSHRYLMKKPGYYLSEEKYIARLRKELQLAPYSRFPLTWIMEAADDISYCVADLEDAVEKRIFSVEQLYHHLYHAWCHHEKDSLFELVVGNAWEKSRANTLSRSTEDQFFMYLRVNTLNKLVPYAAQRFIDNLPQIFAGTFNQALLEDASGFSRLLELYKNVAVEHVFSHPDVEQLELQGYRVISGLLDIYQPLLSLSLNDFRELVEKERLKRFPIESRLFQKLSTRHRLAYVEVVSKLPTDSAEYPVLEYYYRCRLIQDYISGMTDLYAWDEYRRLMAVEQEGHHHHHH | soluble
10 | MSLTDLTKANEWLKDADAVIVTAGNGMAKEEGLDILSEENFDNQFGEIAEKYDVHTIGDALDKEFDSWEEKWTFWSKLINEYSLQYEKSENMKALEKLLEDKEYFIATSTFAHFFENAGFNENRIFDAFGDWTKMQCSSGINHGQKDNREVVKQFLQGKGELPKCEDCGSPMELHMPLNAHFFPDTDANTRFRWFLTGNEEKNVVVLELGVDATSPQLLDPMVNLVQQFSNWHYIAADLANDNLPDDLKKRAIGFGSDTHETLMNLTKEGHHHHHH | soluble
11 | MLNQLDNLTERVRGSNKLVDRWLHVRKHLLVAYYNLVGIKPGKESYMRLNEKALDDFCQSLVDYLSAGHFSIYERILHKLEGNGQLARAAKIWPQLEANTQQIMDYYDSSLETAIDHDNYLEFQQVLSDIGEALEARFVLEDKLILLVLDAARVKHPA | soluble
12 | MITMIYKGNRAAWAYIVARTKVMKSRLLKPEDFRKLLNMEFDEIVRYIGETEYKKEIDELGYKFTGPRLLDHALYANLARTYRKLIEVSFGASKFLIMKYLEKWDVWNIINIIRGKMANVQPEVVDDILVPAGERDMDFWKTLLVKDIEEIVKSFEGTPYYEPLSKIGSEDMSKIEDGLYKVYYRELLKLNPSDFAMKLFLDFIKMEIDIRNVKTLLRLKAEDATPDEIMECTIPGGYELTEEELRKLAAMPIDEMIKALEGYWFWNDVQIEGKEVAAVEIEFDKVWIKTISKRASNYPLSILPVLQYIVLKKVEVDNLRVLGWGKYYGLPSEEIERQMVIL | not soluble
13 | MGSDKIHHHHHHMSFTTWTPPAVASERQPFALTLWRAVEAQHVVSTMPLVDSLDEQAVLEAVLDAGKPAVPAEARHLHYLLFTPFRYPPSPWGSRFRAGQDPGVFYGAEEIRTACAELGYWRWRFLNDSPALPRIDARAQTLFQVSVRTEGVALDTPPFDRDSAQWTDPDSHEACQAFGRIAREAGIGLIRYTSVRDPGHGPCGAVMTPRAFDHPLPLATTTWMLTVRRDRVIWQRDDLQQRDSFEFAASLWQRTSERSPEG | not soluble
14 | METNFIGDDYGPLFHYQYRLIVIGDSTVGKSSLLRYFTEGKMAEISDPTVGVDFYARMIELRPGYRVKLQLWDTAGQEKFRSITKSYYRNSVGVLAIYDTTNRESFEHVENWVKEAALNLGGPSPSKCVFQLVGTKSDMDSQRQVNYEEGEYFAKYHKMKFIETSSRTGDNVNEAFHMIAQEIQNRVDDGELRPVDGWEGLKTGIMRSQSVCLSERSFPQNSSAGACGC | not soluble
15 | MVGCLVVLLGAARKPARIFNLTPASASRYDSIHLCSLRTSLSCH | not soluble
16 | MVPQTGRAARATRESGRQTRDALFTAATELFLEHGEGVPITQICAAAGAHPNQVTYYYGSKERLFVEVACAAVLRAGKRAEDDAATAETVGDYTEKLVGSLLGPGAPSVELFTSAMLMTGRRSELRDLITDTLRTLHSSGEVALIRTLMRTGWQLRAGIDVESKAFWSAIFGLVIQKTATGESFGYSLEEAVAVIFANLQIPETVRNTSID | soluble
17 | MVLSQKLHEAFKGTVERITGPRTISAFKEKGVLSVSEFVLAGDNLVSKCPTWSWESGDASKRKPYLPSDKQFLITRNVPCLRRAASVAEDYEAAGGEVLVDDEDNDGWLATHGKPKGKEEDNLPSMDALDINEKNTIQSIPTYFGGEEDDDIPDMEEFDEADNVVENDPATLQSTYLVAHEPDDDNILRTRTYDLSITYDKYYQTPRVWLTGYDESRMLLQPELVMEDVSQDHARKTVTIEDHPHLPGKHASVHPCRHGAVMKKIIDVLMSRGVEPEVDKYLFLFLKFMASVIPTIEYDYTMDFDLGSSST | not soluble
18 | QMLVNKARLANLNVSLEEKVMQRTVVLSEANHKLQQTVRQYEQSQQELRQTQQELTQAAKLALLGELSASINHEINQPLAALRTYTENSQRLLSMERYPMVADNLNKMLSLNETIAEVIARLKVFTRKTSHEPHNEVSILHDAVHNATSILSNKLIKQGVTLKVPTIDHEVRLAIHSVE | not soluble
19 | MSKATYKERAATHPSPVAAKLFNIMHEKQTNLCASLDVRTTKELLELVEALGPKICLLKTHVDILTDFSMEGTVKPLKALSAKYNFLLFENRKFADIGNTVKLQYSAGVYRIAEWADITNAHGVVGPGIVSGLKQAAEEVTKEPRGLLMLAELSCKGSLATGEYTKGTVDIAKSDKDFVIGFIAQRDMGGRDEGYDWLIMTPGVGLDDKGDALGQQYRTVDDVVSTGSDIIIVGRGLFAKGRDAKVEGERYRKAGWEAYLRRCGQQN | soluble
20 | QLTAAQELMIQQLVAAQLQCNKRSFSDQPKVTPWPLGADPQSRDARQQRFAHFTELAIISVQEIVDFAKQVPGFLQLGREDQIALLKASTIEIMLLETARRYNHETECITFLKDFTYSKDDFHRAGLQVEFINPIFEFSRAMRRLGLDDAEYALLIAINIFSADRPNVQEPGRVEALQQPYVEALLSYTRIKRPQDQLRFPRMLMKLVSLRTLSSVHSEQVFALRLQDKKLPPLLSEIWDVHE | not soluble
